{
  "source": "patent US8715676B2",
  "about": "“Production and uses of type I ribosome inactivating proteins” (priority 2008, dated 2014)",
  "molecules": {"B1": {"name": "Recombinant Cucurmosin: 297 amino acid pro-cucurmosin (SEQ ID 4), type 1 ribosome inactivating protein expressed in E. coli with C-terminal histidine tag (protein, listed as Cucurbita moschata)", "chain": "MNVRFDLSSATSSSYKTFIKNLREALPKDGKVYDIPVLLSTVMDSRRFILIDLVNYDGQSITAAIDVLNVYIVAYSTGTVSYFFQQVPAQAPKLLFKGTQQRTLPYTGNYENLQTAAKKLRENIELGLPALDSAITTLFHYNAEAAASALLVLIQTTSEAARFRYIELQIANNVGTKFKPSQTIISLENNWSALSKQIQIAKNKNGQFETPVILIDPQGNRVQITNVTSNVVTQNIKLLLNIGATVDTMAANDDVDEMTSGVPIRLSSCGHEMERKSVENGRHANYVSVLEHHHHHH", "modifications": "C-terminal His tag"}},
  "key": {"[1]": {"tested_on": "MDA 231 human breast cancer cells", "experiment": "Cytotoxicity in cancer cells in vitro (TOX8 viability, 72 h)", "format": "cell-based", "procedure": "(§1) Human breast cancer cells, MDA 231 and BT 474, were grown in tissue culture to assay for the concentration at which 50% of the cells are inhibited from growing (IC50). The cells were seeded in 96-well plates at 5000 cells per well and grown overnight in RPMI 1640 supplemented with 10% fetal bovine serum and 15 μg/ml insulin. The culture medium was replaced. The recombinant cucurmosin, natural cucurmosin and vinblastine were added to the cells at various concentrations. Likewise, the non-cancer cells, LO2 and lymphocytes were treated with these drugs at different concentrations. The cells were grown for an additional 72 hours and then 20 μl of TOX8 was added to each well. The cells were incubated another 8 hours at 37° C., 5% CO2 to allow time for the cells to metabolize the TOX8 indicator. Absorbance readings at 600 nm were taken of each well. Viability was indicated by a drop in absorbance at 600 nm readings."}, "[2]": {"tested_on": "BT 474 human breast cancer cells", "experiment": "Cytotoxicity in cancer cells in vitro (TOX8 viability, 72 h)", "format": "cell-based", "details": "TB474 (BT 474) cells", "procedure": "as §1"}, "[3]": {"tested_on": "lymphocytes (non-cancer cells)", "experiment": "Cytotoxicity in non-cancer cells in vitro (TOX8 viability, 72 h)", "format": "cell-based", "procedure": "as §1"}, "LO2 non-cancer cells": {"tested_on": "LO2 non-cancer cells", "experiment": "Cytotoxicity in non-cancer cells in vitro (TOX8 viability, 72 h)", "format": "cell-based", "procedure": "as §1"}, "HMEL tumors [4]": {"tested_on": "HMEL tumors", "experiment": "Treating HMEL tumors in mice, intratumoral injection", "format": "in vivo, NOD/SCID mice", "details": "for Tumor growth: over 18 days", "procedure": "(§2) Human lung cancer cells, […] or A549, were used to induce tumor formation in backs of NOD/SCID mice (JAX, #001303). The cells were maintained in culture. In each experiment, 5 million cells were injected into the back of the mice. Tumors formed in 2 to 3 weeks. Tumor sizes were measured using a digital caliper and then areas calculated.\n(§3) In one experiment, either 5 or 50 μg recombinant cucurmosin was injected into the HMEL tumors in 100 μl of saline solution on the days that the tumors were measured. Mouse 2 had tumors in both sides of its back which were each treated separately. Over the 18 day period, the mouse injected with no cucurmosin saw its tumor increase 267% (TABLE 2). […] Mouse 1 and 3 with HMEL tumors after 18 days intratumoral treatment (Table 2), were continually administered recombinant cucurmosin by tail vein injection using 50 μg of recombinant cucurmosin in 100 μl saline solution at day 0 (the same day as day 18 of intratumoral treatment) and day 5. […] The results of these tests are depicted in FIG. 1."}, "HMEL tumors [5]": {"tested_on": "HMEL tumors", "experiment": "Treating HMEL tumors in mice by tail vein injection", "format": "in vivo, NOD/SCID mice", "procedure": "as §2, §3"}, "A549 tumors": {"tested_on": "A549 tumors", "experiment": "Treating A549 tumors in mice, intratumoral injection", "format": "in vivo, NOD/SCID mice", "details": "for Tumor growth: Day 1 to Day 11", "procedure": "as §2\nIn another group of mice, carrying tumors derived from A549 cells, 5 or 50 μg treatments of directly injected recombinant cucurmosin into the tumors was able to reduce tumors by 15 and 33%, respectively while the negative control saw the tumor grow 150% (TABLE 3)."}},
  "note": "Read-outs that look alike come from different tables or passages of the source.",
  "data": [
    {"molecule": "CC[C@]1(O)C[C@@H]2CN(CCc3c([nH]c4ccccc34)[C@@](C(=O)OC)(c3cc4c(cc3OC)N(C)[C@H]3[C@@](O)(C(=O)OC)[C@H](OC(C)=O)[C@]5(CC)C=CCN6CC[C@]43[C@@H]65)C2)C1", "note": "[Vinblastine, reference compound]", "values": [
      {"measurement": "IC50", "setting": "[1]; Homo sapiens, MDA-MB-231, MDA231 cells", "value": 25, "unit": "nM"},
      {"measurement": "IC50", "setting": "[2]; Homo sapiens", "value": 26, "unit": "nM"},
      {"measurement": "IC50", "setting": "[3]; Lymphocyte", "value": 73, "unit": "nM"},
      {"measurement": "IC50", "setting": "LO2 non-cancer cells", "value": 68, "unit": "nM"}
    ]},
    {"molecule": "B1", "values": [
      {"measurement": "IC50", "setting": "[1]; MDA231 cells", "value": 23, "unit": "nM"},
      {"measurement": "IC50", "setting": "[1]; MDA231 cells, listed as recombinant cucurmosin", "value": "> 20", "unit": "nM"},
      {"measurement": "IC50", "setting": "[2]", "value": 22, "unit": "nM"},
      {"measurement": "IC50", "setting": "[2]; listed as recombinant cucurmosin", "value": "> 20", "unit": "nM"},
      {"measurement": "Side-effects in mice", "setting": "HMEL tumors [4]; 5 or 50 μg intratumoral, 18 days", "value": "did not suffer any noticeable side-effects"},
      {"measurement": "Tumor Size", "setting": "HMEL tumors [4]; Mouse 2 left, 5 μg intratumoral, Day 1", "value": 39.4, "unit": "mm^2"},
      {"measurement": "Tumor Size", "setting": "HMEL tumors [4]; Mouse 2 left, 5 μg intratumoral, Day 3", "value": 33, "unit": "mm^2"},
      {"measurement": "Tumor Size", "setting": "HMEL tumors [4]; Mouse 2 left, 5 μg intratumoral, Day 5", "value": 23, "unit": "mm^2"},
      {"measurement": "Tumor Size", "setting": "HMEL tumors [4]; Mouse 2 left, 5 μg intratumoral, Day 8", "value": 19.7, "unit": "mm^2"},
      {"measurement": "Tumor Size", "setting": "HMEL tumors [4]; Mouse 2 left, 5 μg intratumoral, Day 15", "value": 12.5, "unit": "mm^2"},
      {"measurement": "Tumor Size", "setting": "HMEL tumors [4]; Mouse 2 left, 5 μg intratumoral, Day 18", "value": 0, "unit": "mm^2"},
      {"measurement": "Tumor growth", "setting": "HMEL tumors [4]; Mouse 2 left, 5 μg intratumoral", "value": "−100", "unit": "%"},
      {"measurement": "Tumor Size", "setting": "HMEL tumors [4]; Mouse 2 right, 5 μg intratumoral, Day 1", "value": 27.8, "unit": "mm^2"},
      {"measurement": "Tumor Size", "setting": "HMEL tumors [4]; Mouse 2 right, 5 μg intratumoral, Day 3", "value": 24.8, "unit": "mm^2"},
      {"measurement": "Tumor Size", "setting": "HMEL tumors [4]; Mouse 2 right, 5 μg intratumoral, Day 5", "value": 18.5, "unit": "mm^2"},
      {"measurement": "Tumor Size", "setting": "HMEL tumors [4]; Mouse 2 right, 5 μg intratumoral, Day 8", "value": 12.2, "unit": "mm^2"},
      {"measurement": "Tumor Size", "setting": "HMEL tumors [4]; Mouse 2 right, 5 μg intratumoral, Day 15", "value": 0, "unit": "mm^2"},
      {"measurement": "Tumor Size", "setting": "HMEL tumors [4]; Mouse 2 right, 5 μg intratumoral, Day 18", "value": 0, "unit": "mm^2"},
      {"measurement": "Tumor growth", "setting": "HMEL tumors [4]; Mouse 2 right, 5 μg intratumoral", "value": "−100", "unit": "%"},
      {"measurement": "Effect on tumor growth compared to the negative control", "setting": "HMEL tumors [4]; Mouse 3 (largest tumor), 5 μg intratumoral", "value": "slow the tumor growth compared to the negative control"},
      {"measurement": "Tumor Size", "setting": "HMEL tumors [4]; Mouse 3, 5 μg intratumoral, Day 1", "value": 162.2, "unit": "mm^2"},
      {"measurement": "Tumor Size", "setting": "HMEL tumors [4]; Mouse 3, 5 μg intratumoral, Day 3", "value": 158, "unit": "mm^2"},
      {"measurement": "Tumor Size", "setting": "HMEL tumors [4]; Mouse 3, 5 μg intratumoral, Day 5", "value": 151.8, "unit": "mm^2"},
      {"measurement": "Tumor Size", "setting": "HMEL tumors [4]; Mouse 3, 5 μg intratumoral, Day 8", "value": 186.7, "unit": "mm^2"},
      {"measurement": "Tumor Size", "setting": "HMEL tumors [4]; Mouse 3, 5 μg intratumoral, Day 15", "value": 206.7, "unit": "mm^2"},
      {"measurement": "Tumor Size", "setting": "HMEL tumors [4]; Mouse 3, 5 μg intratumoral, Day 18", "value": 231.2, "unit": "mm^2"},
      {"measurement": "Tumor growth", "setting": "HMEL tumors [4]; Mouse 3, 5 μg intratumoral", "value": 43, "unit": "%"},
      {"measurement": "Tumor Size", "setting": "HMEL tumors [4]; Mouse 4, 50 μg intratumoral, Day 1", "value": 23.9, "unit": "mm^2"},
      {"measurement": "Tumor Size", "setting": "HMEL tumors [4]; Mouse 4, 50 μg intratumoral, Day 3", "value": 12.2, "unit": "mm^2"},
      {"measurement": "Tumor Size", "setting": "HMEL tumors [4]; Mouse 4, 50 μg intratumoral, Day 5", "value": 9.4, "unit": "mm^2"},
      {"measurement": "Tumor Size", "setting": "HMEL tumors [4]; Mouse 4, 50 μg intratumoral, Day 8", "value": 0, "unit": "mm^2"},
      {"measurement": "Tumor Size", "setting": "HMEL tumors [4]; Mouse 4, 50 μg intratumoral, Day 15", "value": 0, "unit": "mm^2"},
      {"measurement": "Tumor Size", "setting": "HMEL tumors [4]; Mouse 4, 50 μg intratumoral, Day 18", "value": 0, "unit": "mm^2"},
      {"measurement": "Tumor growth", "setting": "HMEL tumors [4]; Mouse 4, 50 μg intratumoral", "value": "−100", "unit": "%"},
      {"measurement": "Effect on tumors smaller than 40 mm^2", "setting": "HMEL tumors [4]; either 5 or 50 μg intratumoral, 18 day period", "value": "completely abrogated"},
      {"measurement": "Toxic effects on the mice", "setting": "HMEL tumors [5]; 50 μg tail vein injection", "value": "no obvious toxic effects"},
      {"measurement": "Tumor size increase", "setting": "HMEL tumors [5]; Mouse 3, 50 μg tail vein at day 0 and day 5, seven days after initial injection", "value": 7, "unit": "%"},
      {"measurement": "IC50", "setting": "[3]", "value": 2500, "unit": "nM"},
      {"measurement": "IC50", "setting": "LO2 non-cancer cells", "value": 1200, "unit": "nM"},
      {"measurement": "Tumor reduction", "setting": "A549 tumors; 5 μg directly injected into the tumors", "value": 15, "unit": "%"},
      {"measurement": "Tumor reduction", "setting": "A549 tumors; 50 μg directly injected into the tumors", "value": 33, "unit": "%"},
      {"measurement": "Tumor Size", "setting": "A549 tumors; Mouse 2, 5 μg intratumoral, Day 1", "value": 34.7, "unit": "mm^2"},
      {"measurement": "Tumor growth", "setting": "A549 tumors; Mouse 2, 5 μg intratumoral", "value": "−15", "unit": "%"},
      {"measurement": "Tumor Size", "setting": "A549 tumors; Mouse 2, 5 μg intratumoral, Day 3", "value": 38.8, "unit": "mm^2"},
      {"measurement": "Tumor Size", "setting": "A549 tumors; Mouse 2, 5 μg intratumoral, Day 5", "value": 42.4, "unit": "mm^2"},
      {"measurement": "Tumor Size", "setting": "A549 tumors; Mouse 2, 5 μg intratumoral, Day 7", "value": 40.8, "unit": "mm^2"},
      {"measurement": "Tumor Size", "setting": "A549 tumors; Mouse 2, 5 μg intratumoral, Day 9", "value": 39.5, "unit": "mm^2"},
      {"measurement": "Tumor Size", "setting": "A549 tumors; Mouse 2, 5 μg intratumoral, Day 11", "value": 29.5, "unit": "mm^2"},
      {"measurement": "Tumor Size", "setting": "A549 tumors; Mouse 3, 50 μg intratumoral, Day 1", "value": 100.6, "unit": "mm^2"},
      {"measurement": "Tumor growth", "setting": "A549 tumors; Mouse 3, 50 μg intratumoral", "value": "−33", "unit": "%"},
      {"measurement": "Tumor Size", "setting": "A549 tumors; Mouse 3, 50 μg intratumoral, Day 3", "value": 104.1, "unit": "mm^2"},
      {"measurement": "Tumor Size", "setting": "A549 tumors; Mouse 3, 50 μg intratumoral, Day 5", "value": 108.6, "unit": "mm^2"},
      {"measurement": "Tumor Size", "setting": "A549 tumors; Mouse 3, 50 μg intratumoral, Day 7", "value": 113.1, "unit": "mm^2"},
      {"measurement": "Tumor Size", "setting": "A549 tumors; Mouse 3, 50 μg intratumoral, Day 9", "value": 78.8, "unit": "mm^2"},
      {"measurement": "Tumor Size", "setting": "A549 tumors; Mouse 3, 50 μg intratumoral, Day 11", "value": 67.3, "unit": "mm^2"}
    ]}
  ]
}
